Source: publication PMC1977871

Target: 160 kd cell surface receptor (human (endogenous in MDA.MB.231 and 184A1))
Assay: radioligand binding; competition: 5 nM 125I-labelled TAA.62(T) on MDA.MB.231 monolayers with or without unlabelled peptide (cells preincubated with the growth factors), 2 h at 4 C, EBSS with 20 mM Hepes pH 7.4 and 1% BSA; specific binding as % of control

specific binding of 125I-TAA.62(T) (% of control) | Substance
97 % of control | insulin-like growth factor (from UniProt P05019 49-118) (ligand)
95 % of control | transforming growth factor-beta (ligand)
98 % of control | transforming growth factor-alpha (from UniProt P01135 40-89) (ligand)
102 % of control | epidermal growth factor (from UniProt P01133 971-1023) (ligand)
